# B1: ADP-ribosylation factor 1 (Saccharomyces cerevisiae), P11076 (parent)
# chain: MGLFASKLFSNLFGNKEMRILMVGLDGAGKTTVLYKLKLGEVITTIPTIGFNVETVQYKNISFTVWDVGGQDRIRSLWRHYYRNTEGVIFVVDSNDRSRIGEAREVMQRMLNEDELRNAAWLVFANKQDLPEAMSAAEITEKLGLHSIRNRPWFIQATCATSGEGLYEGLEWLSNSLKNST
# B2: ADP-ribosylation factor 1 (Saccharomyces cerevisiae), P11076 (parent)
# chain: B1 chain
# partner: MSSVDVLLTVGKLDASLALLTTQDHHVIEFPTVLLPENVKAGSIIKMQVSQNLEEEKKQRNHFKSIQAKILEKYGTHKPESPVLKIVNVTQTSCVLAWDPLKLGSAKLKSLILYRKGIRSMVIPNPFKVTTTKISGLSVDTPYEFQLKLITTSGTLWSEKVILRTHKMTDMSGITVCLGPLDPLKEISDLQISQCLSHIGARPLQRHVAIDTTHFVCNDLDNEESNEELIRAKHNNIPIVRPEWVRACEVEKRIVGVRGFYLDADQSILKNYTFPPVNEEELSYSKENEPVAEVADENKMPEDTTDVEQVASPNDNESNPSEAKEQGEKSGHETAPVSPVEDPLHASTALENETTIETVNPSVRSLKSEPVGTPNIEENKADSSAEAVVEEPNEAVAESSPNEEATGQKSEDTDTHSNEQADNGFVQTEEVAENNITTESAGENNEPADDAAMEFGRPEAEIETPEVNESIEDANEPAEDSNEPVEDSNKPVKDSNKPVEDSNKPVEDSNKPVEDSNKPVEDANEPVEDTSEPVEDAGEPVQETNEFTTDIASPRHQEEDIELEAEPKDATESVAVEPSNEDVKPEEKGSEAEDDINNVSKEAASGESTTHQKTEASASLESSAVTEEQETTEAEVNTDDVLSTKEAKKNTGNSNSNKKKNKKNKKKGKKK
# Variants of: B1
# Conditions: with glo3_yeast GLO3, P38682
# glo3_yeast GLO3, P38682, sequence (P38682 whole entry): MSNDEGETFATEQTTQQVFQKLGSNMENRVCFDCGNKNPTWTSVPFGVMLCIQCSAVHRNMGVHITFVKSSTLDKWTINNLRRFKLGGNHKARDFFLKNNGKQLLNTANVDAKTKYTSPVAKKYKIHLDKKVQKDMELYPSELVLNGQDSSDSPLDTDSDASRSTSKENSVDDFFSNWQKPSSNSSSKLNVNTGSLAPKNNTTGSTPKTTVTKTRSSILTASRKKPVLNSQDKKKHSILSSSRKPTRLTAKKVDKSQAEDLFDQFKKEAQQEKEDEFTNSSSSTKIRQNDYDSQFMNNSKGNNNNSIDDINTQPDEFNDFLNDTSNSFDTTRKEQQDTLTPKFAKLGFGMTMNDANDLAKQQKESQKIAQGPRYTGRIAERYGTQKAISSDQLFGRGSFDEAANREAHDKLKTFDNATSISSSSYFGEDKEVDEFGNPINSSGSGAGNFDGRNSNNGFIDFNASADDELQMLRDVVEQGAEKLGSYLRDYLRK
row,Variant,effect of a mutation on the interaction
1,Q71L,increasing interaction

# Variants of: B2
# Conditions: with chs5_yeast CHS5, Q12114
row,Variant,effect of a mutation on the interaction
1,Q71L,increasing interaction
